{"source": "the nanobody polyreactivity screen of Harvey et al. (2022)"}
{"assay": "yeast display, Sf9 membrane polyspecificity reagent, FACS + sequencing; frameworks hold sequencing errors", "summary_of_the_method": "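In a synthetic yeast display library (Saccharomyces cerevisiae BJ5465), nanobody expression was induced with galactose for 36–48 hours. FACS gates were set low and high (top ~1%) using anti-HA fluorescence for expression and streptavidin fluorescence for binding of the Sf9 membrane reagent. Each polyreactivity label is drawn from the gate of origin.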"}
{"sequence": "QVQLVESGGGLVQAGGSLRLSCAASGLTFKDNAMGWYRQAPGKERELVAAISKGGGSTFYADSVKGRFTISRDYAKNTVYFQMNSLKPEDTAVYYCNADVGYRGGEEVYWGQGTQVTVSS", "polyreactivity (PSR sort gate)": "low polyreactivity"}
{"sequence": "QVQLVESGGGLVQAGGSLRLSCAASGLTFKLYVMGWYRQAPRKERELVAAISGGGSTYYADSVKGRFTISRDNAKNTVYLQMYSLKPEDTAVYYCAAVRYFEYEYWGQGTQVTVSS", "polyreactivity (PSR sort gate)": "low polyreactivity"}
{"sequence": "QVQLVESGGGLVQAGGSLRLSCAASGLTFKSYAMGWYRQAPGKETELVAAISWRGGRTYYADSVKGRFTISRDNAKNTVYLQMNSLKPEDTAVYYCNARSQQWWLSRYNYWGQGTQVTVSS", "polyreactivity (PSR sort gate)": "high polyreactivity"}
{"sequence": "QVQLVESGGGLVQAGGSLRLSCAASGLTFKTYAMGWYRQAPGKERELVAAISRSGGSTSYADSVKGRFTISRDNAKNTVYLQLNSLIPEDTEVYYCAAKTYEPRKYDYWGQGTQVTVSS", "polyreactivity (PSR sort gate)": "high polyreactivity"}
{"sequence": "QVQLVESGGGLVQAGGSLRLSCAASGLTFKYNAMGWYRQAPGKERELVAGISWSTSSTYYADSVKGRFTISRDNAKNTVYLQMNSLKPEDTAVYYCAVYTITGRVLRQGPLYRHYYWGQGTQVTVSS", "polyreactivity (PSR sort gate)": "high polyreactivity"}
{"sequence": "QVQLVESGGGLVQAGGSLRLSCAASGLTFKYYAMGWYRQAPGKERELVAAITATGGRTYYADSVKGRFTISRDIAKNTVYLQLNSLNPEDTAVYYCNARQYQTYYFYKHDYWGQGTQVSVSS", "polyreactivity (PSR sort gate)": "high polyreactivity"}
{"sequence": "QVQLVESGGGLVQAGGSLRLSCAASGLTFLGNAMGWYRQAPGKERELVASITFSGDSTYYADSVKGRFTISRDNAKNSVYLQMNSVKPEDTAVYYCAADGSRLYYWPFEYDYWGQGTQVTVSS", "polyreactivity (PSR sort gate)": "low polyreactivity"}
{"sequence": "QVQLVESGGGLVQAGGSLRLSCAASGLTFLIYAMGWYIQAPRKERELVASITGRGGSTYYADSVKGRFTISRDNAKNTVYLQMNCLKPEDTAVYYCAASLRYYGLEMDYWGQGTQVTVSS", "polyreactivity (PSR sort gate)": "high polyreactivity"}
{"sequence": "QVQLVESGGGLVQAGGSLRLSCAASGLTFNGYTMGWYRQAPGKERELVAGITHSGSTTYTDSVKGRFTISRDNAKNTVYLQMNSLKPEDTAVYYCNARLGKVRVKDDYWGQGTQVTVSS", "polyreactivity (PSR sort gate)": "low polyreactivity"}
{"sequence": "QVQLVESGGGLVQAGGSLRLSCAASGLTFNLYAMGWYRQAPGKEWELVAAITRNGGSTYYADSVKGPFTISRDNAKNSVYLELNSLKPEDTAVYYCATGWLGTPYGYRRFGYWGQGTQVTVSS", "polyreactivity (PSR sort gate)": "high polyreactivity"}
{"sequence": "QVQLVESGGGLVQAGGSLRLSCAASGLTFNRNAMGWYRQAPGKERELVARISRGGSTNYADSVKGRFTISRDNAKNTVYLQMNSLKPEDTAVYYCAKRGNPRSVVHYNSWGQGTQVTVSS", "polyreactivity (PSR sort gate)": "high polyreactivity"}
{"sequence": "QVQLVESGGGLVQAGGSLRLSCAASGLTFNVYAMGWYRQAPGKERELVAAITRSTGRTYYADSVKGRFTISRDNAKNTVYLQMNSLIPEDTAVYYCNRVSRQYYYQRGFEYDYWGQGTQVTVSS", "polyreactivity (PSR sort gate)": "high polyreactivity"}
{"sequence": "QVQLVESGGGLVQAGGSLRLSCAASGLTFNWNAMGWYRQAPGKERELVAAIRSSGGSTYADSVKGRFTISRDNAKNTVYLQMNSLKPEDTAVYYCAARSRVPPAGPRYDYWGQGTQVTVSS", "polyreactivity (PSR sort gate)": "high polyreactivity"}
{"sequence": "QVQLVESGGGLVQAGGSLRLSCAASGLTFNYYDMGWYRQAPGKERELVAAISRSGTNTSYADSVKGRFTISRDNAKNTVYLQMNSLKPEDTAVYYCNAAGVYLAAGPFTANFNYNYWGQGTQVTVSS", "polyreactivity (PSR sort gate)": "low polyreactivity"}
{"sequence": "QVQLVESGGGLVQAGGSLRLSCAASGLTFPGYVMGWYRQAPGKERELVAAITNGGRTYYADSVKGRFTISRDNAMNTVYLQMNSLKPEDTAVYYCNTARGSKDPPHYYWGQGTQVTVSS", "polyreactivity (PSR sort gate)": "high polyreactivity"}
{"sequence": "QVQLVESGGGLVQAGGSLRLSCAASGLTFPKYAMGWYRQAPGKERELVAAITQRGGSTYYADSVKGRFTISRDNAKNTVYLQMNSLNPEDTAVYYSNARRRDYNNRREFDYWGQGTQVTVSS", "polyreactivity (PSR sort gate)": "high polyreactivity"}
{"sequence": "QVQLVESGGGLVQAGGSLRLSCAASGLTFPPYAMGWSRQAPGNERELVAAISRIRGRTYYADSVKGRFTISRDTAKNTVYLQMNSLKPEDTAVYYCAADGIKGGDEYDYWGQGTQVTVSS", "polyreactivity (PSR sort gate)": "high polyreactivity"}
{"sequence": "QVQLVESGGGLVQAGGSLRLSCAASGLTFPPYAMGWYRQAPGKERELVAAISWNGGNTYYADSVKGRFTISRDNAKNTVYLQMNSLKPEDTAVYYCAAKRGTQGMYYWGQGTQVTVSS", "polyreactivity (PSR sort gate)": "high polyreactivity"}
{"sequence": "QVQLVESGGGLVQAGGSLRLSCAASGLTFPSYAMGWSRQAPGKERELVAAISRRSGSTYYADSVKGRFTICGDNAKYTVYLQMISLKPEDTAVYYCTTRRGERGYWGQGTQVTVSS", "polyreactivity (PSR sort gate)": "high polyreactivity"}
{"sequence": "QVQLVESGGGLVQAGGSLRLSCAASGLTFPSYAMGWYRQAPGKERELVAVISSSGGRTYYADSVKGRFTISRDNAKNTVYLQMNSLIPEDTAVYYCNVGGFLRRRSYDYWGQGTQVTVSS", "polyreactivity (PSR sort gate)": "high polyreactivity"}
{"sequence": "QVQLVESGGGLVQAGGSLRLSCAASGLTFPYNLMGWYRQAPGKERELVASITSVGTTDYADSVKGRFTISRDNAKNTVYLQMNSLKPEDTAVYYCAADVTMFYWWYGKEDYDFWGQGNQVTVSS", "polyreactivity (PSR sort gate)": "low polyreactivity"}
{"sequence": "QVQLVESGGGLVQAGGSLRLSCAASGLTFQHYAMGWYRQAPGKERELVASISYSGGGTYADSVKGRFTISRDNAKNTVYLQMNSQKPEDTAVYYCATSLQRQFDYWGQGTQVTVSS", "polyreactivity (PSR sort gate)": "low polyreactivity"}
{"sequence": "QVQLVESGGGLVQAGGSLRLSCAASGLTFQLYGMGWYRQAPGKERELVAAISGSGGRTYYADSVKGRFTISRDNAKNTVYLQMNSLKPEDTAVYYCAARPGSGRSYTSDYWGQGTQVNVSS", "polyreactivity (PSR sort gate)": "high polyreactivity"}
{"sequence": "QVQLVESGGGLVQAGGSLRLSCAASGLTFQSNAMGWYRQAPGKEREFVAAITSGGNTYYADSVKGRFTISRDNAKNTVYLQMNSLKPEDTAVYYCNADYQDEEDDYWGQGTQVTVSS", "polyreactivity (PSR sort gate)": "low polyreactivity"}
{"sequence": "QVQLVESGGGLVQAGGSLRLSCAASGLTFQVYAMGWYRQAPGKERELVAGITRAGSTYYADSVKGRFTISRDNAKNTVYLQMNSLKPEDTAVYYCAARQPPPYYYWGQGTQVNVSS", "polyreactivity (PSR sort gate)": "high polyreactivity"}
{"sequence": "QVQLVESGGGLVQAGGSLRLSCAASGLTFQYYAMGWYRQAPGKEREFVAAITRRGGNTYYADSVKGRFTISRDNAKNTVYLQMNSLKPEDTAVYYCAARYLQGRYDYWGQGTQVTVSS", "polyreactivity (PSR sort gate)": "high polyreactivity"}
{"sequence": "QVQLVESGGGLVQAGGSLRLSCAASGLTFRHYAMGWYRQAPGKERELVAAITSSGGSTYYADSVKGRFTISRDNAKNTVYIQMNSLKPEDTAVYYCNARWSYFHAVSGVASDYWGQGTQVTVSS", "polyreactivity (PSR sort gate)": "high polyreactivity"}
{"sequence": "QVQLVESGGGLVQAGGSLRLSCAASGLTFRLNAMGWYRQAPGKERELVAAITSIADRTYYADSVKGRFTISRDNAKNTVYLQMNSLKPEDTAVYYCNVTPRRAQVRIGNYWGQGTQVTVSS", "polyreactivity (PSR sort gate)": "high polyreactivity"}
{"sequence": "QVQLVESGGGLVQAGGSLRLSCAASGLTFRRYAMGWYRPAPGKEREFVAAITHNGGRTYYADSVKGRFTISRDNAKNTVYLQMNSLKPEDTAVYYCNAGGQRVNYDYWGQGTQVTVSS", "polyreactivity (PSR sort gate)": "high polyreactivity"}
{"sequence": "QVQLVESGGGLVQAGGSLRLSCAASGLTFRRYAMGWYRQAPGKDRELVAAISRGDNTNYADSVKGRFTISRDNAKNTVYLQMTSLKPEDTAVYFCAPRLWIRGNFNYWGQATQVTVSS", "polyreactivity (PSR sort gate)": "high polyreactivity"}
{"sequence": "QVQLVESGGGLVQAGGSLRLSCAASGLTFRRYDMGWYSQAPGKERELVAAITGGGSTYYADSVKGRFTISRDNAKNTVYLQMNSLKPEDTAGYYCAAGTWYWSYAYDYWGQGTQVTVSS", "polyreactivity (PSR sort gate)": "high polyreactivity"}
{"sequence": "QVQLVESGGGLVQAGGSLRLSCAASGLTFRSYSMGWYRQAPGKEREFVAAITGSGDTTYYADSVKGRFTISRDNAKNTVYLQMNSLKPEDTAVYYCNADRDYLWITLYEYWGQGTQVTVSS", "polyreactivity (PSR sort gate)": "high polyreactivity"}
{"sequence": "QVQLVESGGGLVQAGGSLRLSCAASGLTFRTYAMGWYRQAPGKERELVAAISRSGSTTYYADSVKGRFTISRDNAKNTVYLQMNSLKPEDTAVYYCAAVGIRWLEYWGQGTQVTVSS", "polyreactivity (PSR sort gate)": "high polyreactivity"}
{"sequence": "QVQLVESGGGLVQAGGSLRLSCAASGLTFRYYAMGRNRPARGKEREVVAVITTSTGTTYYADSVKGRFTISRDNAKNTVYLQMNSLKPEDTPVYYCATDTGAYLYSMYDYWGQVTQVTVSS", "polyreactivity (PSR sort gate)": "low polyreactivity"}
{"sequence": "QVQLVESGGGLVQAGGSLRLSCAASGLTFRYYAMGWYRQAPGKERELVATITRAGRTNYADSVKGRFTISRDNAKNTVYLQMNSLKPEDTAVYYCATKRVLTGYDSWGQGTQVTVSS", "polyreactivity (PSR sort gate)": "high polyreactivity"}
{"sequence": "QVQLVESGGGLVQAGGSLRLSCAASGLTFSAYTMGWYRQAPGKERELVAAIDRSGSTYYADSVKGRFTISRDNAKNTVYLQMNSLKPEDTAVYYCAADAVRKDLFDYWGQGTQVTVSS", "polyreactivity (PSR sort gate)": "low polyreactivity"}
{"sequence": "QVQLVESGGGLVQAGGSLRLSCAASGLTFSLYAMGWYGQAPGKEREFVAAISSSGGSTYYADSVKGRFTISRDNAKNTVYLQMNSLKPEDTAVYYCNVRRKSRMGYWGQGTQVTVSS", "polyreactivity (PSR sort gate)": "high polyreactivity"}
{"sequence": "QVQLVESGGGLVQAGGSLRLSCAASGLTFSLYAMGWYRQAPGKERELVAAISSSGSTYYADSVKGRFTISRDNAKNTVYLQMNILKPEDTAVYYFAADAPWWIDPIAGNYWGQGTQVTVSS", "polyreactivity (PSR sort gate)": "high polyreactivity"}
{"sequence": "QVQLVESGGGLVQAGGSLRLSCAASGLTFSRYAMGWYRQAPGKERELVAAISGSGGSTYYADSVKGRFTISRDNAKNTVYLQMNSLKPEDTAVYYCNKYRATNSARDYWGQGTQVTVSS", "polyreactivity (PSR sort gate)": "high polyreactivity"}
{"sequence": "QVQLVESGGGLVQAGGSLRLSCAASGLTFSRYAMGWYRQAPGKERELVATIRSAGSTYYADSVKGRFTISRDNAKNTVYLQMNTLKPEDTAVYYCATAPYYHVKQRYYYWGQGTQVTVSS", "polyreactivity (PSR sort gate)": "high polyreactivity"}
{"sequence": "QVQLVESGGGLVQAGGSLRLSCAASGLTFSRYARGWYRQAPGKERELVAAITGSGGNTYYADSVKGRFTISRDNAKNTVYLQMNSLKPEETAVYYCAARDRGDVTRRKGYYWGQGTQVTVSS", "polyreactivity (PSR sort gate)": "high polyreactivity"}
{"sequence": "QVQLVESGGGLVQAGGSLRLSCAASGLTFSWYAMGWYRPAPGKERELVAAISSGGSTYYADSVKGRFTISRDNAKNTVYLQMNSLKPEDTAVYYCNAESYYYGFFWSGFRYGYWGQGTQVTVSS", "polyreactivity (PSR sort gate)": "high polyreactivity"}
{"sequence": "QVQLVESGGGLVQAGGSLRLSCAASGLTFTGNAMGWNRQAPGKEREFVAAIRWSAGSTYYADSVKGRFTISRDNAKNTVYLQMNSLKPEDSAVYYCNAGLNVSGHYPNDYWGQGTQVTVSS", "polyreactivity (PSR sort gate)": "low polyreactivity"}
